Source: paper PMC9242855

Biological target: CMGE (Cdc45–MCM–GINS–Pol ε) (S. cerevisiae) (UniProt P29469)
Experiment: negative-stain electron microscopy (2D averages, ReconSil); full CMG assembly reaction on nucleosome-flanked ARS1 origin DNA; DDK-phosphorylated double hexamers incubated with CDK, Dpb11, GINS, Cdc45, Pol ε, Sld3–Sld7, Sld2 and 5 mM ATP, 30 min at 30 °C

percent of CMG particles that are dimers (dCMGE, cis configuration): 11%
percent of CMG particles that are dimers (dCMGE, trans configuration): 70%
Substance: CMGE (Cdc45–MCM–GINS–Pol ε) (from UniProt P29469 1-868; P24279 1-971; P30665 1-933; P29496 1-775; P53091 1-1017; P38132 1-845; Q08032 1-650; Q03406 1-294; Q12146 1-194; P21951 1-2222; P24482 1-689) (complex)
